In patent US20240391954A1, “MC4R AGONIST PEPTIDES” (The Regents of the University of Michigan, priority 2021, published 2024):
Starred links: 1 amine or outer side, 2 acyl side, 3 side chain; linkers in the order of their positions; H or OH if unused. Positions of bridges follow the written chain, without caps; N, C: chain ends. Non-standard residues stand in square brackets, D forms with d. Primed or numbered codes have the meaning given here. dTyr(4-OMe) = O-methyl-D-tyrosine (4-OMe), COc1ccc(C[C@@H](N[*:1])C(=O)[*:2])cc1; dTyr(4-OMe)″ = O-methyl-D-tyrosine, COc1ccc(C[C@@H](N[*:1])C(=O)[*:2])cc1; dDip = N[C@@H](C(=O)O)C(c1ccccc1)c1ccccc1; dPhe(4-Br) = N[C@H](Cc1ccc(Br)cc1)C(=O)O; d2Nal = N[C@H](Cc1ccc2ccccc2c1)C(=O)O; d(αMeF) = C[C@@](N)(Cc1ccccc1)C(=O)O; dNMeF = CN[C@H](Cc1ccccc1)C(=O)O; dTic = O=C(O)[C@H]1Cc2ccccc2CN1; Cit = NC(=O)NCCC[C@H](N)C(=O)O; Nle = CCCC[C@H](N)C(=O)O; Aib = CC(C)(N)C(=O)O

B1: CTX-1614 (peptide)
peptide: Ac-R[Nle]CR[dTyr(4-OMe)″]RWC-NH2
modifications: disulfide 3-8
SMILES: CCCC[C@H](NC(=O)[C@H](CCCNC(=N)N)NC(C)=O)C(=O)N[C@H]1CSSC[C@@H](C(N)=O)NC(=O)[C@H](Cc2c[nH]c3ccccc23)NC(=O)[C@H](CCCNC(=N)N)NC(=O)[C@@H](Cc2ccc(OC)cc2)NC(=O)[C@H](CCCNC(=N)N)NC1=O
B2: CTX-1282 (peptide)
peptide: Ac-RC[dA]R[dF][dR]WC-NH2
modifications: disulfide 2-8
SMILES: CC(=O)N[C@@H](CCCNC(=N)N)C(=O)N[C@H]1CSSC[C@@H](C(N)=O)NC(=O)[C@H](Cc2c[nH]c3ccccc23)NC(=O)[C@@H](CCCNC(=N)N)NC(=O)[C@@H](Cc2ccccc2)NC(=O)[C@H](CCCNC(=N)N)NC(=O)[C@@H](C)NC1=O
B3: CTX-1272 (peptide)
peptide: Ac-RC[dA]R[dNMeF]R[dW]C-NH2
modifications: disulfide 2-8
SMILES: CC(=O)N[C@@H](CCCNC(=N)N)C(=O)N[C@H]1CSSC[C@@H](C(N)=O)NC(=O)[C@@H](Cc2c[nH]c3ccccc23)NC(=O)[C@H](CCCNC(=N)N)NC(=O)[C@@H](Cc2ccccc2)N(C)C(=O)[C@H](CCCNC(=N)N)NC(=O)[C@@H](C)NC1=O
B4: CTX-1274 (peptide)
peptide: Ac-RC[dA]R[dW]RWC-NH2
modifications: disulfide 2-8
SMILES: CC(=O)N[C@@H](CCCNC(=N)N)C(=O)N[C@H]1CSSC[C@@H](C(N)=O)NC(=O)[C@H](Cc2c[nH]c3ccccc23)NC(=O)[C@H](CCCNC(=N)N)NC(=O)[C@@H](Cc2c[nH]c3ccccc23)NC(=O)[C@H](CCCNC(=N)N)NC(=O)[C@@H](C)NC1=O
B5: CTX-2203 (peptide)
peptide: Ac-RC[dA]P[d2Nal]RWC-NH2
modifications: disulfide 2-8
SMILES: CC(=O)N[C@@H](CCCNC(=N)N)C(=O)N[C@H]1CSSC[C@@H](C(N)=O)NC(=O)[C@H](Cc2c[nH]c3ccccc23)NC(=O)[C@H](CCCNC(=N)N)NC(=O)[C@@H](Cc2ccc3ccccc3c2)NC(=O)[C@@H]2CCCN2C(=O)[C@@H](C)NC1=O
B6: CTX-1641 (peptide)
peptide: Ac-CGR[dTyr(4-OMe)]RFC-NH2
modifications: disulfide 1-7
SMILES: COc1ccc(C[C@H]2NC(=O)[C@H](CCCNC(=N)N)NC(=O)CNC(=O)[C@@H](NC(C)=O)CSSC[C@@H](C(N)=O)NC(=O)[C@H](Cc3ccccc3)NC(=O)[C@H](CCCNC(=N)N)NC2=O)cc1
B7: CTX-1600 (peptide)
peptide: Ac-RC[Aib][Cit][dTyr(4-OMe)″]R[dW]C-NH2
modifications: disulfide 2-8
B8: CTX-1279 (peptide)
peptide: Ac-RC[dA]R[d(αMeF)]R[dW]C-NH2
modifications: disulfide 2-8
SMILES: CC(=O)N[C@@H](CCCNC(=N)N)C(=O)N[C@H]1CSSC[C@@H](C(N)=O)NC(=O)[C@@H](Cc2c[nH]c3ccccc23)NC(=O)[C@H](CCCNC(=N)N)NC(=O)[C@@](C)(Cc2ccccc2)NC(=O)[C@H](CCCNC(=N)N)NC(=O)[C@@H](C)NC1=O
B9: CTX-1273 (peptide)
peptide: Ac-RC[dA]R[dTic]R[dW]C-NH2
modifications: disulfide 2-8
B10: CTX-1271 (peptide)
peptide: Ac-RC[Aib]R[dF][Cit][dW]C-NH2
modifications: disulfide 2-8
B11: CTX-1640 (peptide)
peptide: Ac-CGR[dPhe(4-Br)]RFC-NH2
modifications: disulfide 1-7
B12: CTX-1615 (peptide)
peptide: Ac-R[Nle]CR[dTyr(4-OMe)″]R[dW]C-NH2
modifications: disulfide 3-8
SMILES: CCCC[C@H](NC(=O)[C@H](CCCNC(=N)N)NC(C)=O)C(=O)N[C@H]1CSSC[C@@H](C(N)=O)NC(=O)[C@@H](Cc2c[nH]c3ccccc23)NC(=O)[C@H](CCCNC(=N)N)NC(=O)[C@@H](Cc2ccc(OC)cc2)NC(=O)[C@H](CCCNC(=N)N)NC1=O
B13: CTX-1283 (peptide)
peptide: Ac-RC[dA]R[dF][dR][dW]C-NH2
modifications: disulfide 2-8
SMILES: CC(=O)N[C@@H](CCCNC(=N)N)C(=O)N[C@H]1CSSC[C@@H](C(N)=O)NC(=O)[C@@H](Cc2c[nH]c3ccccc23)NC(=O)[C@@H](CCCNC(=N)N)NC(=O)[C@@H](Cc2ccccc2)NC(=O)[C@H](CCCNC(=N)N)NC(=O)[C@@H](C)NC1=O
B14: CTX-1280 (peptide)
peptide: Ac-RC[dA]R[dDip]R[dW]C-NH2
modifications: disulfide 2-8

How the values were obtained:
Test in all cases: cell-based or functional assay
human MC3R = human MC3R (human, UniProt P41968 1-323)
human MC3R, sequence (P41968 whole entry): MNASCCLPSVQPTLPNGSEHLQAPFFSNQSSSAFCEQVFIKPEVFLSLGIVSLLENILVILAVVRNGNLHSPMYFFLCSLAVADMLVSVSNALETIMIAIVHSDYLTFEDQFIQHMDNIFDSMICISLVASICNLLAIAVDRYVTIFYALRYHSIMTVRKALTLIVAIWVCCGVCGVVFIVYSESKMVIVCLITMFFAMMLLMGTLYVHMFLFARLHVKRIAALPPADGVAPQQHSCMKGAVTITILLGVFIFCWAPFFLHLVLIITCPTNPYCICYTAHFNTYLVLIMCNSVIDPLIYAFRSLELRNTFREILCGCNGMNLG

human MC4R receptor [1] = molecular target: T1, human MC4R receptor (human, UniProt P32245 1-332)
T1 sequence (P32245 whole entry): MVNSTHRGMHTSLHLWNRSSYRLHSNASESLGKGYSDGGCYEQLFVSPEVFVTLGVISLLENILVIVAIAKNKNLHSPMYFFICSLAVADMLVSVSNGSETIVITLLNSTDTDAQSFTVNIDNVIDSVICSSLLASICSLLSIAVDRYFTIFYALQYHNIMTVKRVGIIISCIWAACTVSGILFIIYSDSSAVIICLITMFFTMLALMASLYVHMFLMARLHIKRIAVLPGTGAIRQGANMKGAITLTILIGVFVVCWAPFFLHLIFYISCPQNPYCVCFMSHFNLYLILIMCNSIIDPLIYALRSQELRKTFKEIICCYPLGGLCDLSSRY

human MC4R receptor [2] = molecular target: T1, human MC4R receptor; remark: listed apart in the source

Row | Binder | % max activation (human MC3R) | cAMP EC50 (human MC3R) | % max activation (human MC4R receptor [1]) | cAMP EC50 (human MC4R receptor [1]) | MC4R selectivity vs MC1R (human MC4R receptor [2]) | MC4R selectivity vs MC3R (human MC4R receptor [2])
1 | B1 | 28% | 3.2 nM | 41% | 1.7 nM | 0.08 | 1.89
2 | B2 | 4.2% | 545 nM | 72% | 1420 nM | 0.14 | 0.38
3 | B3 | 0.9% | 671 nM | 5.3% | 750 nM | 0.21 | 0.9
4 | B4 | 5.4% | 164 nM | 77% | 1400 nM | 0.19 | 0.12
5 | B5 | 1% | 29 nM | 1.4% | 12 nM |  | 2.45
6 | B6 | 22% | 52 nM | 104% | 44 nM | 0.28 | 1.18
7 | B7 |  | > 10000 nM | 58% | 142 nM | > 70 | > 70
8 | B8 | 20% | 43 nM | 79% | 72 nM | 0.83 | 0.61
9 | B9 | 3.7% | 4780 nM | 32% | 7430 nM | 0.05 | 0.64
10 | B10 | 16% | 117 nM | 95% | 72 nM | 2.9 | 1.63
11 | B11 | 27% | 10 nM | 100% | 3.4 nM | 3.72 | 3.09
12 | B12 | 55% | 27 nM | 68% | 13 nM | 0.26 | 2.14
13 | B13 | 7.8% | 719 nM | 55% | 5860 nM | 0.03 | 0.12
14 | B14 | 2.6% | 541 nM | 4% | 438 nM | 0.1 | 1.24
